Legend:
[1] = target: Flag-MLKL T357D/S358E phosphorylation mimic (human) (UniProt Q8NB16); assay: immunoblot of oligomers in cytosol and membrane fractions; HEK-293T cells transfected with Flag-MLKL constructs, with or without RIP3, Bcl-2 or Bcl-2 G145A; Triton X-114 detergent phase separation; oligomers seen by immunoblot (gel conditions not told)
Bcl-2 = Bcl-2 (UniProt P10415); assay: anti-Flag co-IP, Bcl-2 blot; conditions: reference: wild-type MLKL with RIP3; sites T357,S358

Chain of Flag-MLKL T357D/S358E phosphorylation mimic (human) (Q8NB16 whole entry T357D/S358E): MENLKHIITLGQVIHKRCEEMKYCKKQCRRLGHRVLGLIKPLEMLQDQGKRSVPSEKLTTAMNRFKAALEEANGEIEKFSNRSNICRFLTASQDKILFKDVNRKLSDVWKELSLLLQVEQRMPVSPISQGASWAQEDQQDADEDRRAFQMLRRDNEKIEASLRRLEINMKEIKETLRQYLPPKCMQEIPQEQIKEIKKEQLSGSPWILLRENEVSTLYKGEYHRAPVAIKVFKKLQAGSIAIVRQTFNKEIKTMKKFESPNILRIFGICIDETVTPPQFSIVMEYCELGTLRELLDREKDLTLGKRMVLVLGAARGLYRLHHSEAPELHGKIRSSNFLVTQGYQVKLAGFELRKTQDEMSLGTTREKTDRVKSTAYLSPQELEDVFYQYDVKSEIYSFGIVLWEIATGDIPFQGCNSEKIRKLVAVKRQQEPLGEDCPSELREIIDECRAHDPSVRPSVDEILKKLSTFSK
Chain of Bcl-2 (transfected, HEK-293T) (P10415 whole entry): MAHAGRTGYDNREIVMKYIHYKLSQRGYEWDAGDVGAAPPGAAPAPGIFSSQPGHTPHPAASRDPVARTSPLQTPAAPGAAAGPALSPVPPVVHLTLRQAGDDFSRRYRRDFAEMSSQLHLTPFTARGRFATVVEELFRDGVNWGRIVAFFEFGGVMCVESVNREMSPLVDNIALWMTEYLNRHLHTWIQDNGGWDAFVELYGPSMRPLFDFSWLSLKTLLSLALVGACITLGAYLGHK

Bcl-2 (transfected, HEK-293T) (from UniProt P10415 1-239)
percent decrease of MLKL oligomerization [1]: 30%

MLKL (from UniProt Q8NB16) T357A/S358A with RIP3
binding against the reference (Bcl-2): weaker

— article PMC6901440
